# Columns and labels:
# [1] = dog, in vivo
# Method: Multi-organic biodistribution of ^99mTc-DTPA-hAM1-52 was evaluated with an Anger camera (420/550 Mobile Radioisotope Gamma Camera; Technicare, Solon, Ohio, USA) equipped with on board computer, and a low-energy parallel-hole collimator (model 14S22014). Following intravenous injection of ^99mTc-DTPA-hAM1-52, dynamic acquisition of the lungs, heart, liver and kidneys was recorded for a 30-min period (one frame/sec during the first minute, then one frame/min for the remaining time). Static acquisitions was also recorded for whole individual organs, including lungs, kidneys, liver, heart, bladder, gallbladder and muzzle, at 30, 60, 120, 240 minutes after initial injection. These recordings were performed both in ventral and dorsal positions.
# Dynamic and static acquisitions were evaluated by using Matlab version 7.01 image analysis tools software. The ^99mTc total count, ^99mTc mean count, and region of interest (ROI) size were calculated for each organ. Data correction was applied for 1) radioactive decay, 2) surgical table attenuation (dorsal images only), 3) geometric mean, and 4) organ's attenuation based on transmission factor.
# [2] = dog, in vivo, iv
# Method: All experimental procedures were performed in accordance with regulations and ethical guidelines from Canadian Council for the Care of Laboratory Animals, and received approval by the animal ethics and research committee of the Montreal Heart Institute. Mongrel dogs weighing between 20-30 kg and presenting negative Dirofilaria imitis blood test results were anesthetized by an initial intravenous dose of pentobarbital sodium (50 mg/kg). Animals were intubated and mechanically ventilated using room air. Cutaneous electrocardiographic leads were installed, and 18F cathlon with three-way was installed on both saphenous vein for 0.9% sodium chloride perfusion, radiolabelled injection and blood collection. A right arterial femoral catheter was also inserted using the Seldinger technique for continuous blood pressure monitoring.
# Purified and buffered ^99mTc-DTPA-hAM1-52 samples were injected in right saphenous vein (n=6). A series of 2 mL blood samples were collected 1 min after the initial AM injection for a 10-min period, then repeated every 5 min for the following 50-min period. Blood samples were taken via left saphenous vein. […] The blood samples were then placed in an automatic gamma counter (model 1272 Clinigamma, LKB Wallac, Finland) to determine ^99mTc activity.
# Plasma kinetics of ^99mTc-DTPA-hAM1-52 was fitted using a two-phase exponential decay equation with GraphPad Prism version 4.0 software. Time effects on each organ biodistribution were analyzed by two-way repeated measures ANOVA followed, when a significant interaction was found, by Bonferroni/Dunn t-test. Multiple organs biodistribution comparison at 30 minutes was performed by one-way ANOVA followed, when a significant interaction was found, by Bonferroni/Dunn t-test. A P values of <0.05 was considered significant. All results are reported as mean±S.D.
# [3] = target: AM1 (CRLR+RAMP2) receptor, lungs of dogs; assay: Displacement of labelled human adrenomedullin in the lungs of dogs; assay type: binding, dog; conditions: displacement of labelled hAM
molecule,measurement,setting,value
"CC[C@H](C)[C@H](NC(=O)[C@H](CCC(N)=O)NC(=O)[C@H](Cc1c[nH]cn1)NC(=O)[C@H](C)NC(=O)[C@H](CC(C)C)NC(=O)[C@H](CCCCN)NC(=O)[C@H](CCC(N)=O)NC(=O)[C@@H](NC(=O)[C@@H](NC(=O)[C@@H]1CSSC[C@H](NC(=O)CNC(=O)[C@H](Cc2ccccc2)NC(=O)[C@H](CO)NC(=O)[C@H](CCCNC(=N)N)NC(=O)[C@H](CC(C)C)NC(=O)CNC(=O)[C@H](CCC(N)=O)NC(=O)[C@H](Cc2ccccc2)NC(=O)[C@H](CC(N)=O)NC(=O)[C@H](CC(N)=O)NC(=O)[C@H](CCSC)NC(=O)[C@H](CO)NC(=O)[C@H](CCC(N)=O)NC(=O)[C@H](CCCNC(=N)N)NC(=O)[C@H](Cc2ccc(O)cc2)NC(=O)CN(CCN(CCN(CC(=O)O)CC(=O)O)CC(=O)O)CC(=O)O)C(=O)N[C@@H](CCCNC(=N)N)C(=O)N[C@@H](Cc2ccccc2)C(=O)NCC(=O)N[C@@H]([C@@H](C)O)C(=O)N1)[C@@H](C)O)C(C)C)C(=O)N[C@@H](Cc1ccc(O)cc1)C(=O)N[C@@H](CCC(N)=O)C(=O)N[C@@H](Cc1ccccc1)C(=O)N[C@H](C(=O)N[C@@H](CC(=O)O)C(=O)N[C@@H](CCCCN)C(=O)N[C@@H](CC(=O)O)C(=O)N[C@@H](CCCCN)C(=O)N[C@@H](CC(=O)O)C(=O)N[C@@H](CC(N)=O)C(=O)N[C@H](C(=O)N[C@@H](C)C(=O)N1CCC[C@H]1C(=O)N[C@@H](CCCNC(=N)N)C(=O)N[C@@H](CO)C(=O)N[C@@H](CCCCN)C(=O)N[C@H](C(=O)N[C@@H](CO)C(=O)N1CCC[C@H]1C(=O)N[C@@H](CCC(N)=O)C(=O)NCC(=O)N[C@@H](Cc1ccc(O)cc1)C(N)=O)[C@@H](C)CC)C(C)C)[C@@H](C)O [^99mTc-DTPA-hAM1-52, metal not drawn]","bladder retention, % of the injected dose",[1],5.67±1.75%
same,dynamic multi-organic biodistribution,[1],significant pulmonary first pass retention
same,"gallbladder retention, % of the injected dose",[1],0.96±0.38%
same,"heart retention, % of the injected dose",[1],7.17±2.04%
same,"kidneys retention, % of the injected dose",[1],19.17±3.06%
same,"liver retention, % of the injected dose",[1],11.67±1.37%
same,"lung retention, % of the injected dose",[1],15.83±2.32%
same,"lungs retention, % of the injected dose",[1],27.00±2.76%
same,"muzzle retention, % of the injected dose",[1],1.17±0.41%
same,distribution half-life,[2],1.75 min
same,elimination half-life,[2],42.14 min
same,ratio of rate constant for exchange between central and peripheral compartments (k1-2/k2-1),[2],24.09
"CC[C@H](C)[C@H](NC(=O)[C@H](CCC(N)=O)NC(=O)[C@H](Cc1c[nH]cn1)NC(=O)[C@H](C)NC(=O)[C@H](CC(C)C)NC(=O)[C@H](CCCCN)NC(=O)[C@H](CCC(N)=O)NC(=O)[C@@H](NC(=O)[C@@H](NC(=O)[C@H](CS)NC(=O)[C@@H](NC(=O)CNC(=O)[C@H](Cc1ccccc1)NC(=O)[C@H](CCCNC(=N)N)NC(=O)[C@H](CS)NC(=O)CNC(=O)[C@H](Cc1ccccc1)NC(=O)[C@H](CO)NC(=O)[C@H](CCCNC(=N)N)NC(=O)[C@H](CC(C)C)NC(=O)CNC(=O)[C@H](CCC(N)=O)NC(=O)[C@H](Cc1ccccc1)NC(=O)[C@H](CC(N)=O)NC(=O)[C@H](CC(N)=O)NC(=O)[C@H](CCSC)NC(=O)[C@H](CO)NC(=O)[C@H](CCC(N)=O)NC(=O)[C@H](CCCNC(=N)N)NC(=O)[C@@H](N)Cc1ccc(O)cc1)[C@@H](C)O)[C@@H](C)O)C(C)C)C(=O)N[C@@H](Cc1ccc(O)cc1)C(=O)N[C@@H](CCC(N)=O)C(=O)N[C@@H](Cc1ccccc1)C(=O)N[C@H](C(=O)N[C@@H](CC(=O)O)C(=O)N[C@@H](CCCCN)C(=O)N[C@@H](CC(=O)O)C(=O)N[C@@H](CCCCN)C(=O)N[C@@H](CC(=O)O)C(=O)N[C@@H](CC(N)=O)C(=O)N[C@H](C(=O)N[C@@H](C)C(=O)N1CCC[C@H]1C(=O)N[C@@H](CCCNC(=N)N)C(=O)N[C@@H](CO)C(=O)N[C@@H](CCCCN)C(=O)N[C@H](C(=O)N[C@@H](CO)C(=O)N1CCC[C@H]1C(=O)N[C@@H](CCC(N)=O)C(=O)NCC(=O)N[C@@H](Cc1ccc(O)cc1)C(N)=O)[C@@H](C)CC)C(C)C)[C@@H](C)O [hAM linear, Linear adrenomedullin]",IC50,[3],7.1 nM
CGRP(8-37): CGRP fragment 8-37 [reference compound],IC50,[3],≥ 10000 nM
N-Ac hAM: N-terminal acetylated AM,IC50,[3],0.041 nM
"PAMP: synthetic peptide of Table 1, not further defined (ARLDVASEFRKKWNKWALSR) [reference compound]",IC50,[3],≥ 10000 nM
hAM2(16-47): fragment 16-47 of hAM2 (QVQNLSHRLWQLMGPAGRQDSAPVDPSSPHSY) [reference compound],IC50,[3],980 nM
"hAM2: AM2, a peptide within the same family as AM [reference compound]",IC50,[3],480 nM
"hAM(1-25): human adrenomedullin fragment, amino acids 1-25 (YRQSMNNFQGLRSFGCRFGTCTVQK)",IC50,[3],≥ 10000 nM
"hAM(13-52): human adrenomedullin fragment, amino acids 13-52",IC50,[3],34 nM
"hAM(26-52): human adrenomedullin fragment, amino acids 26-52 (LAHQIYQFTDKDKDNVAPRSKISPQGY)",IC50,[3],≥ 1000 nM
"hAM(40-52): human adrenomedullin fragment, amino acids 40-52 (NVAPRSKISPQGY)",IC50,[3],≥ 10000 nM
